Experimental data reported in publication PMC7954794, “Protein context shapes the specificity of SH3 domain-mediated interactions in vivo” (Nature Communications, 2021).

B1: SHO1 (protein, UniProt P40073 1-367, looked up)
High osmolarity signaling …: MSISSKIRPTPRKPSRMATDHSFKMKKFYADPFAISSISLAIVSWVIAIGGSISSASTNESFPRFTWWGIVYQFLIICSLMLFYCFDLVDHYRIFITTSIAVAFVYNTNSATNLVYADGPKKAAASAGVILLSIINLIWILYYGGDNASPTNRWIDSFSIKGIRPSPLENSLHRARRRGNRNTTPYQNNVYNDAIRDSGYATQFDGYPQQQPSHTNYVSSTALAGFENTQPNTSEAVNLHLNTLQQRINSASNAKETNDNSNNQTNTNIGNTFDTDFSNGNTETTMGDTLGLYSDIGDDNFIYKAKALYPYDADDDDAYEISFEQNEILQVSDIEGRWWKARRANGETGIIPSNYVQLIDGPEEMHR
B2: PIN3 (protein, UniProt Q06449 2-215, looked up)
[PSI+] inducibility protein 3: SASLINRSLTNIRTELDFLKGSNVISNDVYDQINKSLPAKWDPANAPRNASPASLEYVEALYQFDPQQDGDLGLKPGDKVQLLEKLSPEWYKGSCNGRTGIFPANYVKPAFSGSNGPSNLPPPPQYKAQELQQIPTQNSAASSYQQQPFPPPSTNYYQQPQQQPQQAPPPQQQQQQQQHQSSHSHLKSFGSKLGNAAIFGAGASIGSDIVNNIF

Tested on: Abp1 PPIs
Assay: DHFR-PCA of Abp1 SH3-swapped baits (Fig. 2B-D, S2C, S2F);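 for Protein-protein interaction distance between Abp1 SH3-swapped baits, to ABP1: Euclidean distance between DHFR-PCA score profiles of the baits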;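 for Protein-protein interaction distance between Abp1 SH3-swapped baits, to BEM1-2: Euclidean distance between DHFR-PCA score profiles of the baits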;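 for Protein-protein interaction distance between Abp1 SH3-swapped baits, to BOI1: Euclidean distance between DHFR-PCA score profiles of the baits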;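 for Protein-protein interaction distance between Abp1 SH3-swapped baits, to BZZ1-1: Euclidean distance between DHFR-PCA score profiles of the baits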
Format: cell-based, Saccharomyces cerevisiae
Settings: for Protein-protein interaction distance between Abp1 SH3-swapped baits, to ABP1: Abp1 bait with swapped SH3, distance to bait with ABP1 SH3; for Protein-protein interaction distance between Abp1 SH3-swapped baits, to ABP1 / Protein-protein interaction distance between Abp1 SH3-swapped baits, to BBC1 / Protein-protein interaction distance between Abp1 SH3-swapped baits, to BEM1-1 / Protein-protein interaction distance between Abp1 SH3-swapped baits, to BEM1-2 / Protein-protein interaction distance between Abp1 SH3-swapped baits, to BOI1 / Protein-protein interaction distance between Abp1 SH3-swapped baits, to BOI2 / Protein-protein interaction distance between Abp1 SH3-swapped baits, to BUD14 / Protein-protein interaction distance between Abp1 SH3-swapped baits, to BZZ1-1 / Protein-protein interaction distance between Abp1 SH3-swapped baits, to BZZ1-2 / Protein-protein interaction distance between Abp1 SH3-swapped baits, to CDC25 / Protein-protein interaction distance between Abp1 SH3-swapped baits, to CTTN / Protein-protein interaction distance between Abp1 SH3-swapped baits, to CYK3 / Protein-protein interaction distance between Abp1 SH3-swapped baits, to DBNL / Protein-protein interaction distance between Abp1 SH3-swapped baits, to FUS1 / Protein-protein interaction distance between Abp1 SH3-swapped baits, to HCLS1 / Protein-protein interaction distance between Abp1 SH3-swapped baits, to HOF1 / Protein-protein interaction distance between Abp1 SH3-swapped baits, to HSE1 / Protein-protein interaction distance between Abp1 SH3-swapped baits, to LSB1 / Protein-protein interaction distance between Abp1 SH3-swapped baits, to LSB3 / Protein-protein interaction distance between Abp1 SH3-swapped baits, to MYO3 / Protein-protein interaction distance between Abp1 SH3-swapped baits, to MYO5 / Protein-protein interaction distance between Abp1 SH3-swapped baits, to NBP2 / Protein-protein interaction distance between Abp1 SH3-swapped baits, to PEX13 / Protein-protein interaction distance between Abp1 SH3-swapped baits, to PIN3 / Protein-protein interaction distance between Abp1 SH3-swapped baits, to RVS167 / Protein-protein interaction distance between Abp1 SH3-swapped baits, to SDC25 / Protein-protein interaction distance between Abp1 SH3-swapped baits, to SHO1 / Protein-protein interaction distance between Abp1 SH3-swapped baits, to SLA1-1 / Protein-protein interaction distance between Abp1 SH3-swapped baits, to SLA1-2 / Protein-protein interaction distance between Abp1 SH3-swapped baits, to SLA1-3 / Protein-protein interaction distance between Abp1 SH3-swapped baits, to YSC84: sheet Fig2C; for Protein-protein interaction distance between Abp1 SH3-swapped baits, to BBC1: distance to Abp1 bait with BBC1 SH3; for Protein-protein interaction distance between Abp1 SH3-swapped baits, to BEM1-1: distance to Abp1 bait with BEM1-1 SH3; for Protein-protein interaction distance between Abp1 SH3-swapped baits, to BEM1-2: distance to Abp1 bait with BEM1-2 SH3; for Protein-protein interaction distance between Abp1 SH3-swapped baits, to BOI1: distance to Abp1 bait with BOI1 SH3; for Protein-protein interaction distance between Abp1 SH3-swapped baits, to BOI2: distance to Abp1 bait with BOI2 SH3; for Protein-protein interaction distance between Abp1 SH3-swapped baits, to BUD14: distance to Abp1 bait with BUD14 SH3; for Protein-protein interaction distance between Abp1 SH3-swapped baits, to BZZ1-1: distance to Abp1 bait with BZZ1-1 SH3; for Protein-protein interaction distance between Abp1 SH3-swapped baits, to BZZ1-2: distance to Abp1 bait with BZZ1-2 SH3; for Protein-protein interaction distance between Abp1 SH3-swapped baits, to CDC25: distance to Abp1 bait with CDC25 SH3; for Protein-protein interaction distance between Abp1 SH3-swapped baits, to CTTN: distance to Abp1 bait with CTTN SH3; for Protein-protein interaction distance between Abp1 SH3-swapped baits, to CYK3: distance to Abp1 bait with CYK3 SH3; for Protein-protein interaction distance between Abp1 SH3-swapped baits, to DBNL: distance to Abp1 bait with DBNL SH3; for Protein-protein interaction distance between Abp1 SH3-swapped baits, to FUS1: distance to Abp1 bait with FUS1 SH3; for Protein-protein interaction distance between Abp1 SH3-swapped baits, to HCLS1: distance to Abp1 bait with HCLS1 SH3; for Protein-protein interaction distance between Abp1 SH3-swapped baits, to HOF1: distance to Abp1 bait with HOF1 SH3; for Protein-protein interaction distance between Abp1 SH3-swapped baits, to HSE1: distance to Abp1 bait with HSE1 SH3; for Protein-protein interaction distance between Abp1 SH3-swapped baits, to LSB1: distance to Abp1 bait with LSB1 SH3; for Protein-protein interaction distance between Abp1 SH3-swapped baits, to LSB3: distance to Abp1 bait with LSB3 SH3; for Protein-protein interaction distance between Abp1 SH3-swapped baits, to MYO3: distance to Abp1 bait with MYO3 SH3; for Protein-protein interaction distance between Abp1 SH3-swapped baits, to MYO5: distance to Abp1 bait with MYO5 SH3; for Protein-protein interaction distance between Abp1 SH3-swapped baits, to NBP2: distance to Abp1 bait with NBP2 SH3; for Protein-protein interaction distance between Abp1 SH3-swapped baits, to PEX13: distance to Abp1 bait with PEX13 SH3; for Protein-protein interaction distance between Abp1 SH3-swapped baits, to PIN3: distance to Abp1 bait with PIN3 SH3; for Protein-protein interaction distance between Abp1 SH3-swapped baits, to RVS167: distance to Abp1 bait with RVS167 SH3; for Protein-protein interaction distance between Abp1 SH3-swapped baits, to SDC25: distance to Abp1 bait with SDC25 SH3; for Protein-protein interaction distance between Abp1 SH3-swapped baits, to SHO1: distance to Abp1 bait with SHO1 SH3; for Protein-protein interaction distance between Abp1 SH3-swapped baits, to SLA1-1: distance to Abp1 bait with SLA1-1 SH3; for Protein-protein interaction distance between Abp1 SH3-swapped baits, to SLA1-2: distance to Abp1 bait with SLA1-2 SH3; for Protein-protein interaction distance between Abp1 SH3-swapped baits, to SLA1-3: distance to Abp1 bait with SLA1-3 SH3; for Protein-protein interaction distance between Abp1 SH3-swapped baits, to YSC84: distance to Abp1 bait with YSC84 SH3; for PPIs gained by Abp1 - SH3-dependent PPIs gained by Abp1 / SH3-dependent PPIs - SH3-dependent PPIs gained by Abp1 / SH3-dependent PPIs gained by Abp1: number of PPIs, Abp1 SH3-swapped with the listed SH3, Fig2D,S2F; for PPIs gained by Abp1 - SH3-dependent PPIs gained by Abp1 / SH3-dependent PPIs - SH3-dependent PPIs gained by Abp1: difference; for SH3-dependent PPIs gained by Abp1: DHFR-PCA
Method in brief: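 Yeast DHFR-PCA in which Abp1 baits, carrying their SH3 replaced by CRISPR–Cas9 with one of 27 yeast SH3s or human CTTN, HCLS1 or DBNL SH3s, were mated against 575 SH3-associated DHFR F[3] preys plus 40 negative controls. Four tests were run per PPI. Diploids were selected twice (48 h, 30 °C), then grown 4 days on PCA selection media.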

Row | Molecule | Protein-protein interaction distance between Abp1 SH3-swapped baits, to ABP1 | Protein-protein interaction distance between Abp1 SH3-swapped baits, to BBC1 | Protein-protein interaction distance between Abp1 SH3-swapped baits, to BEM1-1 | Protein-protein interaction distance between Abp1 SH3-swapped baits, to BEM1-2 | Protein-protein interaction distance between Abp1 SH3-swapped baits, to BOI1 | Protein-protein interaction distance between Abp1 SH3-swapped baits, to BOI2 | Protein-protein interaction distance between Abp1 SH3-swapped baits, to BUD14 | Protein-protein interaction distance between Abp1 SH3-swapped baits, to BZZ1-1 | Protein-protein interaction distance between Abp1 SH3-swapped baits, to BZZ1-2 | Protein-protein interaction distance between Abp1 SH3-swapped baits, to CDC25 | Protein-protein interaction distance between Abp1 SH3-swapped baits, to CTTN | Protein-protein interaction distance between Abp1 SH3-swapped baits, to CYK3 | Protein-protein interaction distance between Abp1 SH3-swapped baits, to DBNL | Protein-protein interaction distance between Abp1 SH3-swapped baits, to FUS1 | Protein-protein interaction distance between Abp1 SH3-swapped baits, to HCLS1 | Protein-protein interaction distance between Abp1 SH3-swapped baits, to HOF1 | Protein-protein interaction distance between Abp1 SH3-swapped baits, to HSE1 | Protein-protein interaction distance between Abp1 SH3-swapped baits, to LSB1 | Protein-protein interaction distance between Abp1 SH3-swapped baits, to LSB3 | Protein-protein interaction distance between Abp1 SH3-swapped baits, to MYO3 | further results
1 | B1 | 8.989 | 7.412 | 10.91 | 30.43 | 8.152 | 11.77 | 14.66 | 4.878 | 7.862 | 24.02 | 9.013 | 24.75 | 4.441 | 16.07 | 8.302 | 29.05 | 5.64 | 11.57 | 11.76 | 10.66 | Protein-protein interaction distance between Abp1 SH3-swapped baits, to MYO5: 10.26; Protein-protein interaction distance between Abp1 SH3-swapped baits, to NBP2: 13.02; Protein-protein interaction distance between Abp1 SH3-swapped baits, to PEX13: 8.672; Protein-protein interaction distance between Abp1 SH3-swapped baits, to PIN3: 9.004; Protein-protein interaction distance between Abp1 SH3-swapped baits, to RVS167: 6.815; Protein-protein interaction distance between Abp1 SH3-swapped baits, to SDC25: 31.28; Protein-protein interaction distance between Abp1 SH3-swapped baits, to SHO1: 0.00; Protein-protein interaction distance between Abp1 SH3-swapped baits, to SLA1-1: 26.8; Protein-protein interaction distance between Abp1 SH3-swapped baits, to SLA1-2: 16.55; Protein-protein interaction distance between Abp1 SH3-swapped baits, to SLA1-3: 11.51; Protein-protein interaction distance between Abp1 SH3-swapped baits, to YSC84: 12.33; PPIs gained by Abp1 - SH3-dependent PPIs gained by Abp1: 3; SH3-dependent PPIs - SH3-dependent PPIs gained by Abp1: 1; SH3-dependent PPIs gained by Abp1: 1
2 | B2 | 11.43 | 11.25 | 16.56 | 33.69 | 13.58 | 17.21 | 19.7 | 8.164 | 13.53 | 28.09 | 14.08 | 28.76 | 8.074 | 21.08 | 8.844 | 32.38 | 9.808 | 5.513 | 5.817 | 8.374 | Protein-protein interaction distance between Abp1 SH3-swapped baits, to MYO5: 6.67; Protein-protein interaction distance between Abp1 SH3-swapped baits, to NBP2: 18.8; Protein-protein interaction distance between Abp1 SH3-swapped baits, to PEX13: 5.433; Protein-protein interaction distance between Abp1 SH3-swapped baits, to PIN3: 0.00; Protein-protein interaction distance between Abp1 SH3-swapped baits, to RVS167: 5.294; Protein-protein interaction distance between Abp1 SH3-swapped baits, to SDC25: 34.35; Protein-protein interaction distance between Abp1 SH3-swapped baits, to SHO1: 9.004; Protein-protein interaction distance between Abp1 SH3-swapped baits, to SLA1-1: 30.57; Protein-protein interaction distance between Abp1 SH3-swapped baits, to SLA1-2: 21.49; Protein-protein interaction distance between Abp1 SH3-swapped baits, to SLA1-3: 6.016; Protein-protein interaction distance between Abp1 SH3-swapped baits, to YSC84: 5.862; PPIs gained by Abp1 - SH3-dependent PPIs gained by Abp1: 29; SH3-dependent PPIs - SH3-dependent PPIs gained by Abp1: 13; SH3-dependent PPIs gained by Abp1: 0
